Experimental data taken from patent US20250170267A1, “ANTIBODY-DRUG CONJUGATE PRECURSOR AND INTERMEDIATE FOR SYNTHESIS THEREOF” (UBE Corporation, priority 2022, published 2025).

Assays:
[1] = molecular target: T1, human liver Cathepsin B (Homo sapiens, UniProt P07858); assay: Metabolism test using human liver Cathepsin B; format: in vitro ADME; conditions: 37° C., 24 hours, released drug, LC-MS/MS
T1 construct: human liver Cathepsin B (manufactured by Sigma-Aldrich Co. LLC, Cat No. C8571 25 μg/vial); purchased Sigma-Aldrich Co. LLC C8571; host or cells: human liver
Procedure: To human liver Cathepsin B (manufactured by Sigma-Aldrich Co. LLC, Cat No. C8571 25 μg/vial)(corresponding to 400 Unit/mL)(5 μL), X10 Catabolic Buffer (manufactured by SEKISUI-Xenotech, LLC., K5200)(10 μL), 2.5 mM Bovine Serum Albumin (manufactured by FUJIFILM Wako Pure Chemical Corporation, Cat No. 012-15093)(5 μL), and distilled water (manufactured by FUJIFILM Wako Pure Chemical Corporation, for HPLC)(55 μL) was added 1.2 μM test compound (antibody-drug conjugate prepared in ADC Production examples)(25 μL) dissolved in PBS to prepare a reaction solution. After the reaction solution was incubated at 37° C. for 24 hours, “an antitumor drug molecule or an analog thereof, or a derivative thereof” released from the antibody-drug conjugate into the reaction solution was quantified by LC-MS/MS (high performance liquid chromatography/mass spectrometer system) under the following conditions. LC-MS/MS analysis conditions
(§1) LC: LC20 or LC30 HPLC system manufactured by Shimadzu Corporation
(§2) Column: Phenomenex Kinetex C18 (50×2.1 mm, 2.6 μm)
(§3) Column temperature: 40° C.
(§4) Mobile phase A: 0.1% aqueous solution of formic acid, Mobile phase B: 0.1% solution of formic acid in a mixture of 50% acetonitrile/methanol
(§5) Mode: Positive or Negative
(§6) The release rate (%) of drug was calculated by the following equation.

[2] = Pharmacokinetic test (serum trastuzumab residual rate); format: in vivo; conditions: female BALB/c mouse, intravenous; 3 days vs 5 minutes after administration
Source text: After a prescribed time period, the blood was collected from the jugular vein or abdominal vein, and centrifuged to prepare a serum. The resulting serum was cryopreserved until the measurement.

[3] = Retention time in HPLC (index of hydrophilicity); format: physicochemical; conditions: Table 6 (eribulin precursors); BEH C18, 0.1% formic acid/acetonitrile gradient, 40° C.
Procedure: As an index of hydrophilicity of the Examples, the retention time (RT) in HPLC analysis was measured, and compared.
Device: LCMS2020 system Shimadzu Corporation
Column: Acquity UPLC (registered trademark) BEH C18 (2.1×50 mm, 1.7 μm)_Waters
Eluent: Solution A: 0.1% aqueous solution of formic acid, Solution B: 0.1% solution of formic acid in acetonitrile

[4] = tested on: human liver lysosome; assay: Metabolism test using human liver lysosomal fraction; format: in vitro ADME; conditions: 37° C., 24 hours, released drug, LC-MS/MS
Procedure: To a reaction composition solution (X10 Catabolic Buffer (manufactured by SEKISUI-Xenotech, LLC., K5200))(60 μL) in which human liver lysosome (manufactured by SEKISUI-Xenotech, LLC., Cat No. H610.L 2.5 mg/mL)(corresponding to 0.125 mg of protein) was suspended and distilled water (manufactured by FUJIFILM Wako Pure Chemical Corporation, for HPLC)(10 μL) was added 1.2 μM test compound (antibody-drug conjugate produced in ADC Production examples)(25 μL) dissolved in PBS to prepare a reaction solution. After the reaction solution was incubated at 37° C. for 24 hours, “an antitumor drug molecule or an analog thereof, or a derivative thereof” released from the antibody-drug conjugate into the reaction solution was quantified by LC-MS/MS (high performance liquid chromatography/mass spectrometer system) under the following conditions. LC-MS/MS analysis conditions
as §1, §2, §3, §4, §5, §6

C=C1C[C@@H]2CC[C@@]34C[C@H]5O[C@H]6[C@@H](O3)[C@H]3O[C@H](CC[C@@H]3O[C@H]6[C@H]5O4)CC(=O)C[C@@H]3[C@@H](OC)[C@@H](C[C@H](O)CNC(=O)OCc4ccc(NC(=O)[C@H](CCCNC(N)=O)NC(=O)[C@@H](NC(=O)[C@H](CC(=O)N[C@H]5CCOC5=O)NC(=O)[C@H](CCCCN(C)C)NC(=O)CCOCCOCCOCCOCCNC(=O)[C@H](CNC(=O)CCP(=O)(O)O)N5C(=O)C=CC5=O)C(C)C)cc4)O[C@H]3C[C@H]3O[C@@H](CC[C@@H]1O2)C[C@@H](C)C3=C [Example 18]
Release rate (%) of drug from ADC [1]: 64%
Serum trastuzumab residual rate after 3 days from administration (%) [2]: 73%
Retention time in HPLC measurement [3]: 0.96 min
Release rate (%) of drug from ADC [4]: 75%

C=C1C[C@@H]2CC[C@@]34C[C@H]5O[C@H]6[C@@H](O3)[C@H]3O[C@H](CC[C@@H]3O[C@H]6[C@H]5O4)CC(=O)C[C@@H]3[C@@H](OC)[C@@H](C[C@H](O)CNC(=O)OCc4ccc(NC(=O)[C@H](CCCNC(N)=O)NC(=O)[C@@H](NC(=O)[C@H](CC(=O)N[C@H]5CCOC5=O)NC(=O)CN(C)CCNC(=O)CCOCCOCCOCCOCCNC(=O)[C@H](CNC(=O)CCP(=O)(O)O)N5C(=O)C=CC5=O)C(C)C)cc4)O[C@H]3C[C@H]3O[C@@H](CC[C@@H]1O2)C[C@@H](C)C3=C [Example 16]
Release rate (%) of drug from ADC [1]: 62%
Serum trastuzumab residual rate after 3 days from administration (%) [2]: 64%
Retention time in HPLC measurement [3]: 0.97 min
Release rate (%) of drug from ADC [4]: 72%
